Measured values reported in the supplement of paper PMC9170038.

Experiments:
[1] = system: MS2 coat protein; assay: apparent KD of MS2 coat protein, switch ON state; designed switch direction (-1 OFF switch, 1 ON switch): -1; higher = weaker reporter binding; conditions: FMN input: 0 or 200 uM; Eterna round: R93 (includes R88 designs)
Method in brief: (§1)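 Normalised binding curves from single clusters were fitted, and the median fit for each design is given as apparent KD. The clusters held designed RNA switches transcribed on-chip from Illumina sequencing clusters. These were titrated with SNAP-549-labelled MS2 coat protein (twofold steps from 0.7 or 1.5 nM to 3 µM, 0.8–1.5 h to 10–20 min per step) in 100 mM Tris-HCl pH 7.5, 80 mM KCl, 4 mM MgCl2, without or with constant ligand.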

[2] = system: MS2 coat protein; assay: apparent KD of MS2 coat protein, switch OFF state (with FMN for OFF switches, without FMN for ON switches); designed switch direction (-1 OFF switch, 1 ON switch): -1; higher = weaker reporter binding; conditions: FMN input: 0 or 200 uM; Eterna round: R93 (includes R88 designs)
Method in brief: as §1

AAUGCGGCAGGAUAUACAUGAGGAUCACCCAUGUAGAUCAGAUAUAUGGGAAAGCCAUGUAGAAGGGCCGCAAA [Ex 3May 61]
apparent KD of MS2 coat protein [1]: 0.0946 µM | apparent KD of MS2 coat protein [2]: 0.0248 µM

AAAACUGGAGGAUAUACAUGAGGAUCACCCAUGUGUGGAUGAGCUGAAACGGCAUCACGUAGAAGGCCACAAAA [Gilly Gone Silly 40 - Jieux - Exclusion 3]
apparent KD of MS2 coat protein [1]: 0.0353 µM | apparent KD of MS2 coat protein [2]: 0.0452 µM

AAAACGGUAGGAUAUACGAUUUGGUACUAGACCGAGGAACCACAUGAGGAUCACCCAUGUAGAAGGACCAAAAA [EX2 Malc#19]
apparent KD of MS2 coat protein [1]: 0.013 µM | apparent KD of MS2 coat protein [2]: 0.014 µM

AGGGAGUGAGGAUAUGCGAAAUAAAAAGAAGGAAAAAAAGAGCAGAAGGCACAUGAGGAUCACCCAUGUGAGAA [milkweed 11]
apparent KD of MS2 coat protein [1]: 0.0226 µM | apparent KD of MS2 coat protein [2]: 0.0157 µM

AAAAAGGCAGGAUAUACAAAAAAGAGAAGAGAGGAGGAGGGACAUGAGGAUCACCCAUGUAGAAGGGCCAAAAA [Karl Gunnar Myrdal]
apparent KD of MS2 coat protein [1]: 0.0315 µM | apparent KD of MS2 coat protein [2]: 0.0325 µM

AAAACUCGAGGAUAUGCAAAAUGAUUGCGAAAGCAAUCAAAACAUGAGGAUCACCCAUGUAGAAGGCGAGAAAA [Mat - Mod of Eli]
apparent KD of MS2 coat protein [1]: 0.0235 µM | apparent KD of MS2 coat protein [2]: 0.013 µM

AGCUAGUGAGGAUAUACGAACAAGUAAAAGGACUGUAAGGGACAUGAGGAUCACCCAUGUAGAAGGCACUAGCA [Diamond 60]
apparent KD of MS2 coat protein [1]: 0.0296 µM | apparent KD of MS2 coat protein [2]: 0.0927 µM

AAAAAAAGAGGAUAUACGUGAAAAAUAAAAAUGUAAAAACCACAUGAGGAUCACCCAUGUAGAAGGCUUAAAAA [Ecx-I 62% 2]
apparent KD of MS2 coat protein [1]: 0.0264 µM | apparent KD of MS2 coat protein [2]: 0.0228 µM

AGGAAACAUGAGGAUCACCCAUGUCAGGAUAUUCAAAAGAAAAGAAAAGAAAGAAGAAGAAGAAGGGACAAGAA [Wazner]
apparent KD of MS2 coat protein [1]: 0.0367 µM | apparent KD of MS2 coat protein [2]: 0.0445 µM

AAAAAGGGAGGAUAUGCAUACACACAAAAAAAAAAAAAGGGACAUGAGGAUCACCCAUGUAGAAGGCCCAAAAA [Dora Explored 5 - Jieux - Exclusion 2]
apparent KD of MS2 coat protein [1]: 0.0299 µM | apparent KD of MS2 coat protein [2]: 0.0251 µM

AAAAAGUGAGGAUAUACAUGAGGAUCACCCAUGUGUAUAAAAAAAUACACAAAAGAAAGUAGAAGGCACUAAAG [Mat - Exclusion 3 - Mayanna mod - D109]
apparent KD of MS2 coat protein [1]: 0.0284 µM | apparent KD of MS2 coat protein [2]: 0.0848 µM

AAGGUAUGAGGAUAUACAUAGAUACAGACACAUGUUCAAGUACAUGAGGAUCACCCAUGUAGAAGGCAUAUAUA [AJ 14]
apparent KD of MS2 coat protein [1]: 0.0242 µM | apparent KD of MS2 coat protein [2]: 0.033 µM

AAGAAGUGAGGAUAUCGAAGACAGACGAAAAGUCUGUCAAACGAGAAGGCACAUGAGGAUCACCCAUGUGAGAA [What have we learned so far? 64% 2]
apparent KD of MS2 coat protein [1]: 0.0226 µM | apparent KD of MS2 coat protein [2]: 0.0381 µM

AUAAAUCGAGGAUAUACAUGAGGAUCACCCAUGUAAAUAAAUAAAUAAAACUCCACAAGUAGAAGGCGAAAUAA [JR_Exc003_Sub020]
apparent KD of MS2 coat protein [1]: 0.0238 µM | apparent KD of MS2 coat protein [2]: 0.0208 µM

AGCUAGUCAGGAUAUACGAACAUGUCGCCAGAUGUGAAGGGACAUGAGGAUCACCCAUGUAGAAGGGACUAGCA [salish99-Ex2-23]
apparent KD of MS2 coat protein [1]: 0.254 µM | apparent KD of MS2 coat protein [2]: 0.198 µM

UACUUACAUGAGGAUCACCCAUGUCAGGAUAUGCGCUCAGAGUAUAUAUAAGAUUCAAGCAGAAGGGACACUAA [JR_Exc001_Sub204]
apparent KD of MS2 coat protein [1]: 0.0348 µM | apparent KD of MS2 coat protein [2]: 0.0372 µM

AAAAAACAUGAGGAUCACCCAUGUGAGGAUAUGAAAAAACAAAAAAAAAAGUAAUCAAUCAGAAGGCACAACAA [JR_Exc--1_Sub1210]
apparent KD of MS2 coat protein [1]: 0.0274 µM | apparent KD of MS2 coat protein [2]: 0.0289 µM

AAAAAACAUGAGGAUCACCCAUGUUAGGAUAUCGUGCAGAAAAAAAAAAAAAACUGCACGAGAAGGAACAAGGA [Brourd - Exclusion 1 - Sub 2]
apparent KD of MS2 coat protein [1]: 0.0291 µM | apparent KD of MS2 coat protein [2]: 0.0449 µM

AGGAUGUCAGGAUAUGCGUAAAGAAUAAAACAAAUAACAACGCAGAAGGGACAUGAGGAUCACCCAUGUUAAGA [May 45]
apparent KD of MS2 coat protein [1]: 0.0423 µM | apparent KD of MS2 coat protein [2]: 0.086 µM

AAAAAACAUGAGGAUCACCCAUGUAAGGAUAUGCAAGAAAGAAGAAAGAAAAGAAAAAGCAGAAGGUACAAAAA [Amethyst 71]
apparent KD of MS2 coat protein [1]: 0.0321 µM | apparent KD of MS2 coat protein [2]: 0.0344 µM

AAAAAGUGAGGAUAUGGUAAAAAAAAAAAAAAAAAAAAACUCCAGAAGGCACAUGAGGAUCACCCAUGUAAAAA [Jolly's Folly - Jieux - Exclusion 4]
apparent KD of MS2 coat protein [1]: 0.0585 µM | apparent KD of MS2 coat protein [2]: 5.29 µM

AAGAAGUCAGGAUAUGCCAGAGAACAAGAAAGUGACGAAUAGCAGAAGGGACAUGAGGAUCACCCAUGUAAAGA [Opal 10]
apparent KD of MS2 coat protein [1]: 0.0337 µM | apparent KD of MS2 coat protein [2]: 0.0219 µM

AGCUAGUCAGGAUAUACGAACAUGUCAAAAGACGUGAAGGAACAUGAGGAUCACCCAUGUAGAAGGGACUAGCA [Diamond 19]
apparent KD of MS2 coat protein [1]: 0.0193 µM | apparent KD of MS2 coat protein [2]: 0.0165 µM

AUAAGAGCAGGAUAUACGUAUAUGAUGCCAGGACCGCGUCCACAUGAGGAUCACCCAUGUAGAAGGGCUUGAAA [Disoleve]
apparent KD of MS2 coat protein [1]: 0.0357 µM | apparent KD of MS2 coat protein [2]: 0.0192 µM

AAAUGCUGAGGAUAUACAUGAGGAUCACCCAUGUGAAAUAAAAAAUGUGUGUAAGCGUGUAGAAGGCAGCAUAA [Exclusion 3.12 (FMN+ favored)]
apparent KD of MS2 coat protein [1]: 0.0571 µM | apparent KD of MS2 coat protein [2]: 0.0258 µM

GUCCGACAUGAGGAUCACCCAUGUAAGGAUAUGUAUCCUUCGGCCCGAACCAGAGGAAGCAGAAGGUACAGGGA [Oneserqu]
apparent KD of MS2 coat protein [1]: 0.0248 µM | apparent KD of MS2 coat protein [2]: 0.0209 µM

AAAAAACAUGAGGAUCACCCAUGUAAGGAUAUCGAAAAGAAAAGAAAAGAAAGAAGAACGAGAAGGUACAAGAA [Neferirkare Kakai]
apparent KD of MS2 coat protein [1]: 0.0166 µM | apparent KD of MS2 coat protein [2]: 0.016 µM

UAAAGACAUGAGGAUCACCCAUGUGAGGAUAUCGGAGACAACAGAACAUCAAGUACAAUGAGAAGGCACAGAAA [JR_Exc001_Sub018]
apparent KD of MS2 coat protein [1]: 0.0406 µM | apparent KD of MS2 coat protein [2]: 0.0471 µM

GGGUAACAUGAGGAUCACCCAUGUGAGGAUAUUCUAGGGAUGGAAGCUCGGCCGGCCAGGAGAAGGUACUAAAG [Janelle Amethyst 18 Mod 20 - Jieux - Exclusion 1]
apparent KD of MS2 coat protein [1]: 0.0263 µM | apparent KD of MS2 coat protein [2]: 0.0368 µM

AAGACUACAGGAUAUACAUGAGGAUCACCCAUGUAACUGACGGGUAGAUGACGGAGAAGUAGAAGGGUAGUCAA [Ruby 37]
apparent KD of MS2 coat protein [1]: 0.0672 µM | apparent KD of MS2 coat protein [2]: 0.0406 µM

AAAAAGCGAGGAUAUACGAGUCAAAGAAAAGACAAAGGGAAACAUGAGGAUCACCCAUGUAGAAGGCGCAAAAA [Fiskers exclusion D2 62% 1]
apparent KD of MS2 coat protein [1]: 0.0237 µM | apparent KD of MS2 coat protein [2]: 0.134 µM

AUAAUGAGAGGAUAUACAUGAGGAUCACCCAUGUAAUUAAAAAGGAGAGAAACAAUACGUAGAAGGCUCAUUUA [JR_Exc003+Sub601]
apparent KD of MS2 coat protein [1]: 0.0216 µM | apparent KD of MS2 coat protein [2]: 0.0506 µM

AAAGGUUGAGGAUAUGCGUGGAAAAAGUGUAUUCAAAAAAAACAUGAGGAUCACCCAUGUAGAAGGCGACCAAA [MS2 Riboswitches On Chip Exclusion 2 wbt3]
apparent KD of MS2 coat protein [1]: 0.0619 µM | apparent KD of MS2 coat protein [2]: 0.163 µM

AAUAAACAUGAGGAUCACCCAUGUCAGGAUAUGCACAAACAAACAAACAAACAAGCUAGCAGAAGGGACACUAC [Amethyst 87]
apparent KD of MS2 coat protein [1]: 0.0231 µM | apparent KD of MS2 coat protein [2]: 0.031 µM

AACAGUACAGGAUAUACAUGAGGAUCACCCAUGUGAAAAGAAAGUGGCGUACCACAAAGUAGAAGGGUACUGAA [Mat - Exclusion 3 - JL mod - D29]
apparent KD of MS2 coat protein [1]: 0.0253 µM | apparent KD of MS2 coat protein [2]: 0.135 µM

AAAAGCACAGGAUAUACAAAAAAAUGACGAAAGUCAUAGGGACAUGAGGAUCACCCAUGUAGAAGGGUGCAAAA [Mod of Meechl's... 64% 4]
apparent KD of MS2 coat protein [1]: 0.197 µM | apparent KD of MS2 coat protein [2]: 0.44 µM

AAGAAGGGAGGAUAUACAUAAAAGAAAGAAAAGAAAAGAAAACAUGAGGAUCACCCAUGUAGAAGGCCCAAGAA [EteRNA is fun!]
apparent KD of MS2 coat protein [1]: 0.0287 µM | apparent KD of MS2 coat protein [2]: 0.0293 µM

CGCAAGUCAGGAUAUUCGACAGGUAAAUCAGUAGAUCAGAAGAAGAAGGGACAUGAGGAUCACCCAUGUAAGUA [JR_Exc004_Sub405]
apparent KD of MS2 coat protein [1]: 0.0411 µM | apparent KD of MS2 coat protein [2]: 0.0243 µM

AAGAAUUCAGGAUAUACAAGGAAGAAAGAAAAGAAAAGAAAACAUGAGGAUCACCCAUGUAGAAGGGAAUAGAA [EteRNA is fun!]
apparent KD of MS2 coat protein [1]: 0.04 µM | apparent KD of MS2 coat protein [2]: 0.0266 µM

AAAAAUUGAGGAUAUACGUACAUGUCGAAAGACGUGAAGGGACAUGAGGAUCACCCAUGUAGAAGGCGAAAAAA [Mat - Exclusion 2 - JL mod - D73]
apparent KD of MS2 coat protein [1]: 0.0456 µM | apparent KD of MS2 coat protein [2]: 0.0279 µM

AGAAAACAUGAGGAUCACCCAUGUCAGGAUAUCUAAAAGAAAAGAAAAGAAAGAAGAAAGAGAAGGGACAAGAA [Sekhemib-Perenmaat]
apparent KD of MS2 coat protein [1]: 0.0221 µM | apparent KD of MS2 coat protein [2]: 0.0255 µM

CUCAUGUCAGGAUAUGUAGCAUGAUACGAAAGUAUCAUGCUACAGAAGGGACAUGAGGAUCACCCAUGUCCAAA [Ex4: 944]
apparent KD of MS2 coat protein [1]: 0.119 µM | apparent KD of MS2 coat protein [2]: 0.0377 µM

AAAAAGUGAGGAUAUUCGGAUAGGAAAACGAAAACCUAUCCGAAGAAGGCACAUGAGGAUCACCCAUGUGAGAA [67% Ecls-II - Early G + late G segment 4]
apparent KD of MS2 coat protein [1]: 0.0265 µM | apparent KD of MS2 coat protein [2]: 0.0513 µM

AAGAAGGAAGGAUAUACAUGAGGAUCACCCAUGUAAAAGAAAGAAAAGGGAAAGAAAAGUAGAAGGUCCAAGAA [Djeserkheperure-setpenre Horemheb]
apparent KD of MS2 coat protein [1]: 0.0304 µM | apparent KD of MS2 coat protein [2]: 0.0416 µM
